The values below come from the supplement of paper PMC5998384.

For series [1], the system named is HeLa Kyoto. Description: solubility in G1/S (NP-40 vs SDS abundance) (log2 ratio); higher = more soluble. The conditions noted are these: cell cycle stage: G1/S.
The subject of series [2] is HeLa Kyoto. The experiment in a line: melting temperature (median over replicates), in situ; higher = more thermally stable.
Series [3] concerns HeLa Kyoto. Description: solubility change mitosis vs G1/S (difference of NP-40 vs SDS log2 ratios) (log2 ratio difference); higher = more soluble in mitosis.
The test system of series [4] is HeLa Kyoto. The experiment in a line: thermal stability score vs G1/S (z-score of summed log2 fold changes over temperatures); higher = more thermally stable than in G1/S.
Where [5] appears, read: cell cycle stage: early G1 (4.5 h after nocodazole release).
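For melting temperature (median over replicates), in situ in this document: HeLa Kyoto cells synchronized by double thymidine or nocodazole block, proteins quantified by TMT10plex mass spectrometry, three independent biological replicates.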
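For solubility change mitosis vs G1/S (difference of NP-40 vs SDS log2 ratios) in this document: synchronized HeLa Kyoto cells (double thymidine block for G1/S, nocodazole release for mitosis), protein amounts in NP-40 versus SDS lysates quantified by mass spectrometry, three biological replicates.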
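For solubility in G1/S (NP-40 vs SDS abundance) in this document: HeLa Kyoto cells arrested at G1/S by double thymidine block, proteins quantified by TMT10plex mass spectrometry in mild NP-40 versus SDS extracts, three biological replicates.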
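For thermal stability score vs G1/S (z-score of summed log2 fold changes over temperatures) in this document: synchronized HeLa Kyoto cells, proteins quantified by TMT10plex mass spectrometry, three biological replicates, mitosis taken 0.5 h after nocodazole release, G1/S directly after double thymidine block.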

In the case of “MESEDLSGRELTIDSIMNKVRDIKNKFKNEDLTDELSLNKISADTTDNSGTVNQIMMMANNPEDWLSLLLKLEKNSVPLSDALLNKLIGRYSQAIEALPPDKYGQNESFARIQVRFAELKAIQEPDDARDYFQMARANCKKFAFVHISFAQFELSQGNVKKSKQLLQKAVERGAVPLEMLEIALRNLNLQKKQLLSEEEKKNLSASTVLTAQESFSGSLGHLQNRNNSCDSRGQTTKARFLYGENMPPQDAEIGYRNSLRQTNKTKQSCPFGRVPVNLLNSPDCDVKTDDSVVPCFMKRQTSRSECRDLVVPGSKPSGNDSCELRNLKSVQNSHFKEPLVSDEKSSELIITDSITLKNKTESSLLAKLEETKEYQEPEVPESNQKQWQSKRKSECINQNPAASSNHWQIPELARKVNTEQKHTTFEQPVFSVSKQSPPISTSKWFDPKSICKTPSSNTLDDYMSCFRTPVVKNDFPPACQLSTPYGQPACFQQQQHQILATPLQNLQVLASSSANECISVKGRIYSILKQIGSGGSSKVFQVLNEKKQIYAIKYVNLEEADNQTLDSYRNEIAYLNKLQQHSDKIIRLYDYEITDQYIYMVMECGNIDLNSWLKKKKSIDPWERKSYWKNMLEAVHTIHQHGIVHSDLKPANFLIVDGMLKLIDFGIANQMQPDTTSVVKDSQVGTVNYMPPEAIKDMSSSRENGKSKSKISPKSDVWSLGCILYYMTYGKTPFQQIINQISKLHAIIDPNHEIEFPDIPEKDLQDVLKCCLKRDPKQRISIPELLAHPYVQIQTHPVNQMAKGTTEEMKYVLGQLVGLNSPNSILKAAKTLYEHYSGGESHNSSSSKTFEKKRGKK”, the “solubility in G1/S (log2)” value in the series with HeLa Kyoto [1] came to 0.176. Moreover, the melting temperature with HeLa Kyoto [2] (cell cycle stage: G1/S) was 46.8 °C; with HeLa Kyoto [2] (cell cycle stage: mitosis), 48.1 °C. For the same sequence, the “solubility change mitosis (log2)” value in the series with HeLa Kyoto [3] was found to be 0.0511. For the same sequence, the thermal stability score with HeLa Kyoto [4] (setting [5]) came out at 0.873; in the series on HeLa Kyoto [4] (cell cycle stage: mitosis) it was 3.46.
Turning to “MKEEKEHRPKEKRVTLLTPAGATGSGGGTSGDSSKGEDKQDRNKEKKEALSKVVIRRLPPTLTKEQLQEHLQPMPEHDYFEFFSNDTSLYPHMYARAYINFKNQEDIILFRDRFDGYVFLDNKGQEYPAIVEFAPFQKAAKKKTKKRDTKVGTIDDDPEYRKFLESYATDNEKMTSTPETLLEEIEAKNRELIAKKTTPLLSFLKNKQRMREEKREERRRREIERKRQREEERRKWKEEEKRKRKDIEKLKKIDRIPERDKLKDEPKIKVHRFLLQAVNQKNLLKKPEKGDEKELDKREKAKKLDKENLSDERASGQSCTLPKRSDSELKDEKPKRPEDESGRDYREREREYERDQERILRERERLKRQEEERRRQKERYEKEKTFKRKEEEMKKEKDTLRDKGKKAESTESIGSSEKTEKKEEVVKRDRIRNKDRPAMQLYQPGARSRNRLCPPDDSTKSGDSAAERKQESGISHRKEGGEE [UPF3B]”, the “solubility in G1/S (log2)” value with HeLa Kyoto [1] is -0.279. Also, the values for the melting temperature with HeLa Kyoto [2] (cell cycle stage: G1/S) and in the series with HeLa Kyoto [2] (cell cycle stage: mitosis) were 50.6 °C and 50.5 °C, respectively. Moreover, the “solubility change mitosis (log2)” value in the series on HeLa Kyoto [3] was 0.245. The values for the thermal stability score in the series with HeLa Kyoto [4] (setting [5]) and in the series on HeLa Kyoto [4] (cell cycle stage: mitosis) were 0.0687 and -0.398, respectively.
Consider “MASSDIQVKELEKRASGQAFELILSPRSKESVPEFPLSPPKKKDLSLEEIQKKLEAAEERRKSHEAEVLKQLAEKREHEKEVLQKAIEENNNFSKMAEEKLTHKMEANKENREAQMAAKLERLREKDKHIEEVRKNKESKDPADETEAD [STMN1]”, for which the “solubility in G1/S (log2)” value with HeLa Kyoto [1] turned out to be 0.635. For the same sequence, the melting temperature stood at 56.7 °C with HeLa Kyoto [2] (cell cycle stage: G1/S) and 64.1 °C in the series on HeLa Kyoto [2] (cell cycle stage: mitosis). The “solubility change mitosis (log2)” value in the series with HeLa Kyoto [3] worked out at 0.208. In addition, the values for the thermal stability score in the series on HeLa Kyoto [4] (setting [5]) and with HeLa Kyoto [4] (cell cycle stage: mitosis) were -6.5 and -5.49, respectively.
On to “MAAVKDSCGKGEMATGNGRRLHLGIPEAVFVEDVDSFMKQPGNETADTVLKKLDEQYQKYKFMELNLAQKKRRLKGQIPEIKQTLEILKYMQKKKESTNSMETRFLLADNLYCKASVPPTDKVCLWLGANVMLEYDIDEAQALLEKNLSTATKNLDSLEEDLDFLRDQFTTTEVNMARVYNWDVKRRNKDDSTKNKA [VBP1]”, for which the “solubility in G1/S (log2)” value in the series with HeLa Kyoto [1] turned out to be 0.453. Also, the melting temperature in the series with HeLa Kyoto [2] (cell cycle stage: G1/S) amounted to 53.1 °C; in the series on HeLa Kyoto [2] (cell cycle stage: mitosis), 53.4 °C. For the same sequence, the “solubility change mitosis (log2)” value with HeLa Kyoto [3] worked out at 0.513. Moreover, the thermal stability score is -3.96 with HeLa Kyoto [4] (setting [5]) and -5.3 in the series with HeLa Kyoto [4] (cell cycle stage: mitosis).
“MEVAVEKAVAAAAAASAAASGGPSAAPSGENEAESRQGPDSERGGEAARLNLLDTCAVCHQNIQSRAPKLLPCLHSFCQRCLPAPQRYLMLPAPMLGSAETPPPVPAPGSPVSGSSPFATQVGVIRCPVCSQECAERHIIDNFFVKDTTEVPSSTVEKSNQVCTSCEDNAEANGFCVECVEWLCKTCIRAHQRVKFTKDHTVRQKEEVSPEAVGVTSQRPVFCPFHKKEQLKLYCETCDKLTCRDCQLLEHKEHRYQFIEEAFQNQKVIIDTLITKLMEKTKYIKFTGNQIQNRIIEVNQNQKQVEQDIKVAIFTLMVEINKKGKALLHQLESLAKDHRMKLMQQQQEVAGLSKQLEHVMHFSKWAVSSGSSTALLYSKRLITYRLRHLLRARCDASPVTNNTIQFHCDPSFWAQNIINLGSLVIEDKESQPQMPKQNPVVEQNSQPPSGLSSNQLSKFPTQISLAQLRLQHMQQQVMAQRQQVQRRPAPVGLPNPRMQGPIQQPSISHQQPPPRLINFQNHSPKPNGPVLPPHPQQLRYPPNQNIPRQAIKPNPLQMAFLAQQAIKQWQISSGQGTPSTTNSTSSTPSSPTITSAAGYDGKAFGSPMIDLSSPVGGSYNLPSLPDIDCSSTIMLDNIVRKDTNIDHGQPRPPSNRTVQSPNSSVPSPGLAGPVTMTSVHPPIRSPSASSVGSRGSSGSSSKPAGADSTHKVPVVMLEPIRIKQENSGPPENYDFPVVIVKQESDEESRPQNANYPRSILTSLLLNSSQSSTSEETVLRSDAPDSTGDQPGLHQDNSSNGKSEWLDPSQKSPLHVGETRKEDDPNEDWCAVCQNGGELLCCEKCPKVFHLSCHVPTLTNFPSGEWICTFCRDLSKPEVEYDCDAPSHNSEKKKTEGLVKLTPIDKRKCERLLLFLYCHEMSLAFQDPVPLTVPDYYKIIKNPMDLSTIKKRLQEDYSMYSKPEDFVADFRLIFQNCAEFNEPDSEVANAGIKLENYFEELLKNLYPEKRFPKPEFRNESEDNKFSDDSDDDFVQPRKKRLKSIEERQLLK [TRIM24]”: the “solubility in G1/S (log2)” value in the series on HeLa Kyoto [1] was -0.0643. For the same sequence, the values for the melting temperature in the series with HeLa Kyoto [2] (cell cycle stage: G1/S) and with HeLa Kyoto [2] (cell cycle stage: mitosis) were 48.8 °C and 50.2 °C, respectively. Besides, the “solubility change mitosis (log2)” value with HeLa Kyoto [3] was -0.117. The thermal stability score with HeLa Kyoto [4] (setting [5]) is 2.07; in the series on HeLa Kyoto [4] (cell cycle stage: mitosis), 4.99.
